# According to patent US20220227887A1 (ONO PHARMACEUTICAL, published 2022):
# T1: monomeric mouse LAG3-EC (strep-tagged) (mouse, UniProt Q61790 24-422, limits assumed)
# T1 construct: It was immobilized on a streptavidin-coated biosensor; also called mouse LAG3 soluble protein; not shown: C-terminal strep tag
# T1 sequence: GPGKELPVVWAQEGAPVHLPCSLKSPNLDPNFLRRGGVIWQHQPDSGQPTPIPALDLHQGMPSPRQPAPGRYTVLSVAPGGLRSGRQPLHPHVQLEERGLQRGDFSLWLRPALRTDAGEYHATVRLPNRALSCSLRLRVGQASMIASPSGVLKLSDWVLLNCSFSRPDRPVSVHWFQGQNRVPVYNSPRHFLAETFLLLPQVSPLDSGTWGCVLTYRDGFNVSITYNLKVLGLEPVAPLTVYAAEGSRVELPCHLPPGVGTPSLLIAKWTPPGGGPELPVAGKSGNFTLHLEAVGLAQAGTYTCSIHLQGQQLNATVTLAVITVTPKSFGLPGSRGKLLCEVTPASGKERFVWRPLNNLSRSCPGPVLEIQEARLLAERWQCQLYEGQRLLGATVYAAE
# T2: mouse LAG3 (wild type), forcibly expressed on DO11.10 or B3Z cells (mouse, UniProt Q61790 24-521)
# T2 construct: The whole entry is named; also called mLAG3; mLAG3 WT
# T2 sequence: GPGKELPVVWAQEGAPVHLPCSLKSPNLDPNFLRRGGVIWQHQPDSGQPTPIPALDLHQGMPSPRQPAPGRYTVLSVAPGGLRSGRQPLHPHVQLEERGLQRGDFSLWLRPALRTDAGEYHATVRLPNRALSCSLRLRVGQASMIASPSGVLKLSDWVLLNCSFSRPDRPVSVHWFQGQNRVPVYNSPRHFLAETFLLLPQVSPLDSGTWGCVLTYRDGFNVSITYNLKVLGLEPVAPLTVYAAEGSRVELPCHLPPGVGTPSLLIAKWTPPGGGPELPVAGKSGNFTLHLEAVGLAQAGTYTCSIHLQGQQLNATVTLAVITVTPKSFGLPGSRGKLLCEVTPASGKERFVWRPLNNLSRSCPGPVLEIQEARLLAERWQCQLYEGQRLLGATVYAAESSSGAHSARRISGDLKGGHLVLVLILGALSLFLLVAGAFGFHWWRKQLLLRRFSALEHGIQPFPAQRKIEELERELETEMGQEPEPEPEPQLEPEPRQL
# B1: bispecific molecule 2C11xTKB58 (bispecific antibody)
# chain: DAAQPAREVQLVESGGGLVQPGKSLKLSCEASGFTFSGYGMHWVRQAPGRGLESVAYITSSSINIKYADAVKGRFTVSRDNAKNLLFLQMNILKSEDTAMYYCARFDWDKNYWGQGTMVTVSSGGGGSIVLTQSPATLSVTPGDSVSLSCRASQSISNNLHWYQQKSHESPRLLIKYASQSISGIPSRFSGSGSGTDFTLSINSVETEDFGMYFCQQSNSWPQYTFGGGTKLEIKGGGGSGGGGSGGGGSVQLQQSGAELVRPGALVKLSCKASGFNIKDYYMHWVKQRPEQGLEWIGWIDPENGNTIYDPKFQDKASLTADTSSNTAYLQLSSLTSEDTAVYYCAPERGYDYAMDYWGQGTSVTVSSGGGGSDIQMTQSPSSLPASLGDRVTINCQASQDISNYLNWYQQKPGKAPKLLIYYTNKLADGVPSRFSGSGSGRDSSFTISSLESEDIGSYYCQQYYNYPWTFGPGTKLEIKGGGGSDYKDDDDKNSAVDHHHHHH
# notes: Used as culture supernatant of transfected PlatE cells
# B2: anti-mouse LAG3 antibody TKB58 (antibody, V domains shown)
# VH: VQLQQSGAELVRPGALVKLSCKASGFNIKDYYMHWVKQRPEQGLEWIGWIDPENGNTIYDPKFQDKASLTADTSSNTAYLQLSSLTSEDTAVYYCAPERGYDYAMDYWGQGTSVTVSS
# VL: IVLTQSPATLSVTPGDSVSLSCRASQSISNNLHWYQQKSHESPRLLIKYASQSISGIPSRFSGSGSGTDFTLSINSVETEDFGMYFCQQSNSWPQYTFGGGTKLEIK
# notes: Full-form antibody; also called TKB58 antibody; full-form anti-mouse LAG3 antibody
# B3: bispecific molecule TKB58xYTS169 (bispecific antibody)
# chain: DAAQPARVQLQQSGAELVRPGALVKLSCKASGFNIKDYYMHWVKQRPEQGLEWIGWIDPENGNTIYDPKFQDKASLTADTSSNTAYLQLSSLTSEDTAVYYCAPERGYDYAMDYWGQGTSVTVSSGGGGSDIVLTQSPAMAMSPGERITISCRASESVSTRMHWYQQKPGQQPKLLIYGASNLESGVPARFSGSGSGTDFTLTIDPVEANDTATYFCQQSWYDPWTFGGGTKLELKGGGGSGGGGSGGGGSEVKLQESGGGLVQPGRSLKLSCAASGFNFNDYWMGWVRQAPGKGLEWIGEINKDSSTINYTPSLKDKFTISRDNAQNTLYLQMSKLGSEDTAIYYCARARGMMVLIIPHYFDYWGQGVMVTVSSTGGGGSIVLTQSPATLSVTPGDSVSLSCRASQSISNNLHWYQQKSHESPRLLIKYASQSISGIPSRFSGSGSGTDFTLSINSVETEDFGMYFCQQSNSWPQYTFGGGTKLEIKGGGGSDYKDDDDKNSAVDHHHHHH
# notes: as for B1
# What was measured:
# [1] = biological target: T1, monomeric mouse LAG3-EC (strep-tagged); test: biolayer interferometry (BLItz), strep-tagged monomeric mouse LAG3-EC on the biosensor, antibody at 66.67, 200, 666.7 and 2000 nM
# Description: (§1) The binding affinity of anti-mouse LAG3 antibodies (TKB58 and C9B7W) to a mouse LAG3 soluble protein was measured by biolayer interferometry. Briefly, cDNA fragments encoding D1 to D4 (LAG3-EC) of mouse LAG3 were amplified by PCR. A strep tag was added to the C-terminus of LAG3-EC. The chimeric cDNA was cloned into an expression vector modified from pEBMulti-Neo (Wako). Plat-E cells were transfected with the plasmid using Avalanche-Omni Transfection Reagent (EZ Biosystems) and the culture supernatant was collected after 48 hours. Monomeric mouse LAG3-EC (strep-tagged) was immobilized on a streptavidin-coated biosensor chip (Pall ForteBio) and binding of anti-mouse LAG3 antibodies at various concentrations was monitored with BLItz (Pall ForteBio). The chips were washed with PBS and the dissociation rates were analyzed. The binding rate constant (ka), the dissociation rate constant (kd), and the dissociation constant […] were calculated with BLItz Pro software. In TKB58, as compared with a case in C9B7W, ka was about 26 times faster and kd was 3.6 times slower.
# [2] = biological target: T2, mouse LAG3 (wild type), forcibly …; test: flow cytometry of DO11.10-mLAG-3 cells (CD3ε +, LAG-3 +) stained with culture supernatant, detected with anti-FLAG tag antibody
# Text: A nucleic acid encoding the heavy and light chain variable regions of an anti-mouse LAG3 antibody (TKB58) and an anti-mouse CD3s antibody (2C11) was synthesized, amplified by PCR, and was cloned into an expression plasmid vector produced by modifying pEBMulti-Neo (Wako) or pSecTag2/Hygro (Thermo Fisher Scientific), whereby expression plasmids of bispecific molecules 2C11xTKB58 (SEQ ID NO: 31) and TKB58x2C11 (SEQ ID NO: 32) recognizing mouse LAG3 and […] were produced. The expression plasmid was transfected into PlatE cells using Avalanche-Omni Transfection Reagent (EZ Biosystems), and the culture supernatant was collected after 48 hours. BW5147, DO11.10, and DO11.10-mLAG3 cells were stained using the culture supernatant.
# [3] = biological target: T1, monomeric mouse LAG3-EC (strep-tagged); test: biolayer interferometry (BLItz); reference C9B7W
# Description: as §1
# [4] = biological target: T2, mouse LAG3 (wild type), forcibly …; test: flow cytometry of cells stained with culture supernatant
# Text: A nucleic acid encoding the heavy and light chain variable regions of an anti-mouse LAG3 antibody (TKB58) and an anti-mouse CD8 antibody (YTS169) was synthesized, amplified by PCR, and was cloned into an expression plasmid vector produced by modifying pEBMulti-Neo (Wako), whereby an expression plasmid of a bispecific molecule TKB58xYTS169 (SEQ ID NO: 33) recognizing mouse LAG3 and mouse CD8 was produced. The expression plasmid was transfected into PlatE cells using Avalanche-Omni Transfection Reagent (EZ Biosystems), and the culture supernatant was collected after 48 hours. DO11.10, DO11.10-mLAG3, B3Z, and B3Z-mLAG3 cells were stained using the culture supernatant.
Molecule,Kd [1] [nM],koff [1] [s⁻¹],kon [1] [M⁻¹ s⁻¹],further results
anti-mouse LAG3 antibody C9B7W,414,0.00392,9480,
B1,,,,binding result [2]: binds
B2,4.39,0.0011,251000,fold faster ka against C9B7W [3]: ~26 times; fold lower KD against C9B7W [3]: 94 times; fold slower kd against C9B7W [3]: 3.6 times
B3,,,,binding result [4]: binds
